According to patent US20260184777A1 (BEIJING SUNGEN BIOMEDICAL TECHNOLOGY, published 2026):
Positions count from the first letter of the chain named.

T1: human S100A8/A9 heterodimeric antigen, His-tagged (hS100A8/A9-His) (human, UniProt P05109 1-93; P06702 1-114)
T1 sequence 1: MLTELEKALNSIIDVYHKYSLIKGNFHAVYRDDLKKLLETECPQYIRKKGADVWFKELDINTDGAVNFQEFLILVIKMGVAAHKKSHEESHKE
T1 sequence 2: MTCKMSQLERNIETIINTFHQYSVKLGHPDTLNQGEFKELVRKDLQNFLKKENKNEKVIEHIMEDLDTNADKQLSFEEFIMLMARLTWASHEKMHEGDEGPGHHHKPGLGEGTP

T2: S100A1 (human, UniProt P23297 1-94)
T2 sequence (looked up): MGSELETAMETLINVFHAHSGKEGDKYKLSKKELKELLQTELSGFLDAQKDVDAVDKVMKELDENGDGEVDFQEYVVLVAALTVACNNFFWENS

B1: CM-35 (antibody, human IgG4 S228P, lambda, V domains shown)
VH: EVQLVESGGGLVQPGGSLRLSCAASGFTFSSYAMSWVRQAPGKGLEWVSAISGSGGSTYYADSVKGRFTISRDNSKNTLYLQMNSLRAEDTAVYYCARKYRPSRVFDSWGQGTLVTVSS
VL: SYELTQPPSVSVAPGQTARITCSGDALGDKYASWYQQKPGQAPVLVIYEDSKRPSGIPERFSGSNSGNTATLTISGTQAEDEADYYCDSNDADSVWVFGGGTKLTVLG
B2: CM-29 (antibody, human IgG4 S228P, lambda, V domains shown)
VH: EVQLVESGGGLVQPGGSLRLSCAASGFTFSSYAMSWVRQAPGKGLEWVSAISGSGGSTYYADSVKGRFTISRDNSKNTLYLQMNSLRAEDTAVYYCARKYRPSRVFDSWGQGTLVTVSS
VL: B1 VL with D50Q, D88Q
B3: CM-38 (antibody, human IgG4 S228P, lambda, V domains shown)
VH: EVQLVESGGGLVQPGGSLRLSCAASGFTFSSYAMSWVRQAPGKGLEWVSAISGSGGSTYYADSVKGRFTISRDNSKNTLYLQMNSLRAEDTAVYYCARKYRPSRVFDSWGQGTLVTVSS
VL: B1 VL with D88Q, A92I
B4: CM-9 (antibody, human IgG4 S228P, lambda, V domains shown)
VH: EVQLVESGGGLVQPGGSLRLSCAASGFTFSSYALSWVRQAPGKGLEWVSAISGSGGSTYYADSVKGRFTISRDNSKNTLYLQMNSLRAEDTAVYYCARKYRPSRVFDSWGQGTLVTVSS
VL: B1 VL with D88Q
B5: CM-24 (antibody, human IgG4 S228P, lambda, V domains shown)
VH: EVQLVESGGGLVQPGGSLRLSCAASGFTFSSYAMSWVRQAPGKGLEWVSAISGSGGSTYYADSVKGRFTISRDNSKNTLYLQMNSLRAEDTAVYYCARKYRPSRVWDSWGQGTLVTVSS
VL: B1 VL with D88Q
B6: CM-31 (antibody, human IgG4 S228P, lambda, V domains shown)
VH: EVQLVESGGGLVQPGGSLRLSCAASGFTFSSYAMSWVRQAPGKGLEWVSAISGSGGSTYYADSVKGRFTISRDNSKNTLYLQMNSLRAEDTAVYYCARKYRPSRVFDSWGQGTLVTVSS
VL: B1 VL with S51H, D88Q
B7: CM-33 (antibody, human IgG4 S228P, lambda, V domains shown)
VH: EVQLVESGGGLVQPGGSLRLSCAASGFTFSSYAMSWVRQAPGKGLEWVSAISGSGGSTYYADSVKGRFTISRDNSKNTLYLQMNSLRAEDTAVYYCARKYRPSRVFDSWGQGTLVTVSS
VL: B1 VL with K52R, D88Q
B8: CM-18 (antibody, human IgG4 S228P, lambda, V domains shown)
VH: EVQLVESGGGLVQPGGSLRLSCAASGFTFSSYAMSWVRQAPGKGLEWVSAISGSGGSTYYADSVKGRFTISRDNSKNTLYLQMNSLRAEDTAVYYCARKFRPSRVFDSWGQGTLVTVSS
VL: B1 VL with D88Q
B9: CM-8 (antibody, human IgG4 S228P, lambda, V domains shown)
VH: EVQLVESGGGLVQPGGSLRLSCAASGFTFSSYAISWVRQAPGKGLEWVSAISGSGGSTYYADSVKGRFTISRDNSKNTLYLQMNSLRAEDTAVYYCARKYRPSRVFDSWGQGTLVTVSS
VL: B1 VL with D88Q
B10: CM-16 (antibody, human IgG4 S228P, lambda, V domains shown)
VH: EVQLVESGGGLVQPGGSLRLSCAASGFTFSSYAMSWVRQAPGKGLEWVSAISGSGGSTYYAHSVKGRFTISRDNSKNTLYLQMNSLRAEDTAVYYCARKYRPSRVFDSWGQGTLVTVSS
VL: B1 VL with D88Q
B11: CM-26 (antibody, human IgG4 S228P, lambda, V domains shown)
VH: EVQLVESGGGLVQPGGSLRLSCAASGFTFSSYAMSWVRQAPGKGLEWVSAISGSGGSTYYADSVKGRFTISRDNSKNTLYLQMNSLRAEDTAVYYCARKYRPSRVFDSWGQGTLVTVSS
VL: B1 VL with Y31F, D88Q
B12: CM-11 (antibody, human IgG4 S228P, lambda, V domains shown)
VH: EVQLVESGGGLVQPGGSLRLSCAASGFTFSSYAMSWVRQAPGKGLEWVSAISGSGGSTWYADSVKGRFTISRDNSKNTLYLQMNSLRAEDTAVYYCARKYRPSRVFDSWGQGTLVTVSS
VL: B1 VL with D88Q
B13: CM-23 (antibody, human IgG4 S228P, lambda, V domains shown)
VH: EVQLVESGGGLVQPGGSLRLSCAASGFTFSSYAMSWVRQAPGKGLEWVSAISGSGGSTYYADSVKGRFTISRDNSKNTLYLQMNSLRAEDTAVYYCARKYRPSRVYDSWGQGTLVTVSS
VL: B1 VL with D88Q
B14: CM-22 (antibody, human IgG4 S228P, lambda, V domains shown)
VH: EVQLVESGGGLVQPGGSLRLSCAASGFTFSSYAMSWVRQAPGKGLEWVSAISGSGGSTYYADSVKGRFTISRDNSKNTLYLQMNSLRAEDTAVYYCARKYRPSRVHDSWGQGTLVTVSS
VL: B1 VL with D88Q
B15: CM-13 (antibody, human IgG4 S228P, lambda, V domains shown)
VH: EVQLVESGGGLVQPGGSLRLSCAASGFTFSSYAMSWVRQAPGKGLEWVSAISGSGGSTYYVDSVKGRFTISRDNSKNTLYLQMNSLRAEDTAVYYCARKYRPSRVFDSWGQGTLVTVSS
VL: B1 VL with D88Q
B16: CM-36 (antibody, human IgG4 S228P, lambda, V domains shown)
VH: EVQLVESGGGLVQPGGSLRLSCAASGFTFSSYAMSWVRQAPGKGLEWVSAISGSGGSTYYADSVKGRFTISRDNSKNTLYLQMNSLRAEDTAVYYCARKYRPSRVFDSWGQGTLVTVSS
VL: B1 VL with D88Q, A92V
B17: CM-14 (antibody, human IgG4 S228P, lambda, V domains shown)
VH: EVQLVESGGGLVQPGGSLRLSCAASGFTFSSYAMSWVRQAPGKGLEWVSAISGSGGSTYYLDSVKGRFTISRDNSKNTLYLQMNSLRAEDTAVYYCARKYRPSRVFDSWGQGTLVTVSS
VL: B1 VL with D88Q
B18: CM-27 (antibody, human IgG4 S228P, lambda, V domains shown)
VH: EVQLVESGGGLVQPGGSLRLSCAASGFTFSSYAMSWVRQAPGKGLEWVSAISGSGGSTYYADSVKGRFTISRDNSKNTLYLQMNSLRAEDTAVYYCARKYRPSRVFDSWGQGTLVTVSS
VL: B1 VL with E49Q, D88Q
B19: CM-28 (antibody, human IgG4 S228P, lambda, V domains shown)
VH: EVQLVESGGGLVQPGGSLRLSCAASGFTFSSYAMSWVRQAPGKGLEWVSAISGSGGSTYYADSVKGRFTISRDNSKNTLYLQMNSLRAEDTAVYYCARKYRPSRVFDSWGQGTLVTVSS
VL: B1 VL with D50H, D88Q
B20: CM-10 (antibody, human IgG4 S228P, lambda, V domains shown)
VH: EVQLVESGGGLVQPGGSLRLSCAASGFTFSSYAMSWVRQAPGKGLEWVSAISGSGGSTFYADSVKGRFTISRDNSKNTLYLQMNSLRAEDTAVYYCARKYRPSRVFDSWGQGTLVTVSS
VL: B1 VL with D88Q
B21: CM-39 (antibody, human IgG4 S228P, lambda, V domains shown)
VH: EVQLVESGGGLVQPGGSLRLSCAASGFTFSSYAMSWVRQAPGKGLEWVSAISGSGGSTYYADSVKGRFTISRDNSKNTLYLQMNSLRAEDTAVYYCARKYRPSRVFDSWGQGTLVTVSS
VL: B1 VL with D88Q, S94A
B22: CM-21 (antibody, human IgG4 S228P, lambda, V domains shown)
VH: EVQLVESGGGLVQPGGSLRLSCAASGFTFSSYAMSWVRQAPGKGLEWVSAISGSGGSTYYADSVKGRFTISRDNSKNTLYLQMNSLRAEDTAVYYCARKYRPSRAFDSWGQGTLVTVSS
VL: B1 VL with D88Q
B23: CM-30 (antibody, human IgG4 S228P, lambda, V domains shown)
VH: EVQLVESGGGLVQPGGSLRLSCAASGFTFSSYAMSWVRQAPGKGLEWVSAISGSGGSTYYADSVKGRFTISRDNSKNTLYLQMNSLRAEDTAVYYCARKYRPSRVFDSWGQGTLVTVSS
VL: B1 VL with S51A, D88Q
B24: CM-12 (antibody, human IgG4 S228P, lambda, V domains shown)
VH: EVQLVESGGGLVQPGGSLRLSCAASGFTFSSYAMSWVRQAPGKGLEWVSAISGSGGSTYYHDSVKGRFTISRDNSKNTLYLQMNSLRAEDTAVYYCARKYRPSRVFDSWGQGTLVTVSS
VL: B1 VL with D88Q
B25: CM-32 (antibody, human IgG4 S228P, lambda, V domains shown)
VH: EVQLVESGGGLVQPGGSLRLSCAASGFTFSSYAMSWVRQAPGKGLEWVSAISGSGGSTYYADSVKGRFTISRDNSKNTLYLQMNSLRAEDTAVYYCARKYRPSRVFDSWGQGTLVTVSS
VL: B1 VL with K52H, D88Q
B26: CM-25 (antibody, human IgG4 S228P, lambda, V domains shown)
VH: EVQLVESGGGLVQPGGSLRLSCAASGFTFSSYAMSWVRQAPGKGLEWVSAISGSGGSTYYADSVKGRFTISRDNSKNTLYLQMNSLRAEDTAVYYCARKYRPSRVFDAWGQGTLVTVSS
VL: B1 VL with D88Q
B27: CM-20 (antibody, human IgG4 S228P, lambda, V domains shown)
VH: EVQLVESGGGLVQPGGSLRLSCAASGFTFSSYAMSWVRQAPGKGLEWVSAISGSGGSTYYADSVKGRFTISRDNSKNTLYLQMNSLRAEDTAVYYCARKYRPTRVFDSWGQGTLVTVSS
VL: B1 VL with D88Q
B28: CM-37 (antibody, human IgG4 S228P, lambda, V domains shown)
VH: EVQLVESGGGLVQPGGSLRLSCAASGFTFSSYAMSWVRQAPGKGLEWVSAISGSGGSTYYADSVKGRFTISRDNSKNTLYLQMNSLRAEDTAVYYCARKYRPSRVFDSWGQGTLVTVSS
VL: B1 VL with D88Q, A92L
B29: CM-19 (antibody, human IgG4 S228P, lambda, V domains shown)
VH: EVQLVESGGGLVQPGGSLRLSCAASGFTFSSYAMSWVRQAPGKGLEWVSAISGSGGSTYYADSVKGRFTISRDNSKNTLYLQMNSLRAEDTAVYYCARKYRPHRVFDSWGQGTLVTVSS
VL: B1 VL with D88Q
B30: CM-15 (antibody, human IgG4 S228P, lambda, V domains shown)
VH: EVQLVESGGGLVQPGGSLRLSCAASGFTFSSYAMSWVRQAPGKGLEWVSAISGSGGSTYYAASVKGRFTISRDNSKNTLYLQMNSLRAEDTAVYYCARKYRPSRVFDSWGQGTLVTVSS
VL: B1 VL with D88Q
B31: CM-17 (antibody, human IgG4 S228P, lambda, V domains shown)
VH: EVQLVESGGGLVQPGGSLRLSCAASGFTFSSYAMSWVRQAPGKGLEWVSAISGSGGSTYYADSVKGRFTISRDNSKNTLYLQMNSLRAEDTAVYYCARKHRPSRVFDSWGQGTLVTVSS
VL: B1 VL with D88Q
B32: CM-34 (antibody, human IgG4 S228P, lambda, V domains shown)
VH: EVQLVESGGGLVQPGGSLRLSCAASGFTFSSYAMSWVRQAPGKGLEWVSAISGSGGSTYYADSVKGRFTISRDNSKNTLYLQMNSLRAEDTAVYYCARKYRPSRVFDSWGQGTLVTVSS
VL: B1 VL with K52P, D88Q
B33: Anti-S100A8/A9 monoclonal antibody (antibody, human IgG4 S228P, lambda, V domains shown)
VH: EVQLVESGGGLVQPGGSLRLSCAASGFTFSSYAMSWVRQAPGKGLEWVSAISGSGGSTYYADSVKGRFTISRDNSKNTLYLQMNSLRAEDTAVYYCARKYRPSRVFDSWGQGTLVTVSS
VL: B1 VL with D88Q
notes: also called CM-1; parental antibody

These binders were tested against T1, human S100A8/A9 heterodimeric antigen, … (assay: cell-based or functional assay).

Row | Binder | IC50, inhibition of IL-6 release from hS100A8/A9-activated human PBMCs
1 | B1 | 0.655 µg/mL
2 | B2 | 2 µg/mL
3 | B3 | 0.084 µg/mL
4 | B4 | 1.56 µg/mL
5 | B5 | 0.67 µg/mL
6 | B6 | 0.48 µg/mL
7 | B7 | 0.452 µg/mL
8 | B8 | 0.109 µg/mL
9 | B9 | 0.458 µg/mL
10 | B10 | 0.457 µg/mL
11 | B11 | 0.168 µg/mL
12 | B12 | 0.038 µg/mL
13 | B13 | 0.024 µg/mL
14 | B14 | 0.162 µg/mL
15 | B15 | 0.047 µg/mL
16 | B16 | 0.393 µg/mL

Row | Binder | IC50, inhibition of IL-6 release from hS100A8/A9-activated human PBMCs
17 | B17 | 2.79 µg/mL
18 | B18 | 0.253 µg/mL
19 | B19 | 1.74 µg/mL
20 | B20 | 0.438 µg/mL
21 | B21 | 0.452 µg/mL
22 | B22 | 0.01 µg/mL
23 | B23 | 0.434 µg/mL
24 | B24 | 0.047 µg/mL
25 | B25 | 0.536 µg/mL
26 | B26 | 0.471 µg/mL
27 | B27 | 0.43 µg/mL
28 | B28 | 0.335 µg/mL
29 | B29 | 0.619 µg/mL
30 | B30 | 0.477 µg/mL
31 | B31 | 0.32 µg/mL
32 | B32 | 1.22 µg/mL

Each binder was assayed against plague (UniProt P26948 22-170) (assay: not given).
Chain of plague (P26948 22-170): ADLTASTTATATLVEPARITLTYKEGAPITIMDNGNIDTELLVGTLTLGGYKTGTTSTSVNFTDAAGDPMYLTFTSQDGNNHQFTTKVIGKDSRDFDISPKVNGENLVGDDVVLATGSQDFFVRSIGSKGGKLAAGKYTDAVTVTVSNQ

Row | Binder | binding result
33 | B33 | no binding (tested: 20 µg/mL)

The binders below were run against T2, S100A1 (assay: not given).

Row | Binder | binding result
34 | B33 | no binding (tested: 20 µg/mL)

The binders below were run against T1, human S100A8/A9 heterodimeric antigen, … (assay: not given).

Row | Binder | Kd
35 | B33 | 8.95 nM

These binders were tested against monkey S100A8/A9 heterodimeric antigen (cS100A8/A9) (monkey) (assay: not given).

Row | Binder | Kd
36 | B33 | 22.8 nM
